# Measured values from patent US10428327B2, “Compositions and methods for enhancing homologous recombination” (LIFE TECHNOLOGIES CORPORATION, priority 2016, dated 2019).
# Oligonucleotides are written 5' to 3', each unit as a sugar letter and its base; * is a phosphorothioate linkage, no mark a phosphodiester; rarer units and linkages stand in square brackets, end groups in braces. Plain capitals give the bases only. d = 2'-deoxy (DNA); {P} = phosphate
# Key:
# [1] = tested on: HEK293 cells stably expressing eBFP; assay: HDR assay, conversion of eBFP to GFP by flow cytometry; format: cell-based; conditions: oligonucleotide length and modification, sequential delivery, 1 nt substitution, 48 hours
# Text: To generate a HEK293FT stable cell line expressing eBFP, an eBFP ORF was synthesized by GENEART® custom DNA synthesis (Thermo Fisher Scientific) and then cloned into pDONAR221 vector. Using GATEWAY® recombination technology (Thermo Fisher Scientific), the eBFP ORF was transferred to pLenti6.2-DEST Gateway Vector and then verified by sequencing. Lentivirus was generated using VIRAPOWER® kit as described in the manual. To generate stable cell line, HEK293FT cells were transduced with 0.1 MOI of Lentivirus expressing eBFP. Three days post transduction cells were selected on 5 μg/mL Blasticidine antibiotics for 2 weeks. Cells expressing eBFP were then collected and diluted to […] in complete medium and plated into 96 well plates for single cell clone. After 2 weeks clones were isolated and verified for eBFP expression by flow cytometer. In a reporter assay using a stable eBFP-expressing HEK293 cell line, the substitution of C to T in eBFP gene converts His67 to Tyr67, generating a GFP variant (Table 5).
# (§1) To create homologous recombination (HR) assays, a series of gRNAs flanking the insertion site within the EmGFP gene were designed and synthesized (Table 4). Each individual gRNA was combined with GENEART™ […]™ Cas9 Nuclease to form the Cas9 protein/gRNA ribonucleoprotein complexes (Cas9 RNPs). The Cas9 RNPs were then used to transfect cells via NEON® electroporation. The genomic cleavage efficiency was then evaluated using the GENEART® Genomic Cleavage Detection kit at 48 hours post transfection. The gRNAs with highest editing efficiencies and also in close proximity to the insertion site were selected for the subsequent HR assays. For donor design of a single-stranded oligonucleotide, typically the mutation site was positioned at the center flanked by 30 to 50 nucleotides on each side. For asymmetric donor design, 30 nucleotides were placed on either the left or right arm and then 50 or 67 nucleotides on the right or left arm respectively, in both PAM and non-PAM strands. For design of a dsDNA oligonucleotide with single-stranded overhangs, the insertion element was overlapped in the center flanked by various lengths of ssDNA oligonucleotide on each side. By annealing two single-stranded oligonucleotides at 95° C. for 3 minutes, dsDNA donor molecules with either a 5′ protrusion or a 3′ protrusion were generated. To measure homologous recombination efficiency, the donor DNA was either co-transfected with Cas9 RNPs or delivered sequentially into cells via electroporation. At 48 hours post transfection, the gain of EmGFP function in reporter cell lines was determined by flow cytometric analysis with an Attune® NxT Acoustic Focusing Cytometer (Thermo Fisher Scientific). Alternatively, the genomic loci were PCR-amplified using the corresponding primers and then subjected to GENEART® Genomic Cleavage Detection assay or restriction digestion. The resulting PCR products were also subjected to TOPO cloning. Typically, 96 colonies were randomly picked for sequencing. The sequencing data were analyzed using VECTOR NTI ADVANCE® 11.5 software (Thermo Fisher Scientific).
# For each homologous recombination assay, 1.5 μg of Cas9 protein and 360 ng of gRNA were added to Resuspension Buffer R to a final volume of 7 μl, but limiting the total volume of Cas9 protein plus gRNA to less than 1 μl. The gRNA could be diluted in Buffer R if the concentration was too high. Upon mixing, the sample was incubated at room temperature for 5 to 10 minutes to form Cas9 RNPs. Meanwhile, […]™ HEK293 cells expressing either eBFP or disrupted EmGFP were detached from culture flask with TRYPLE™ Express Enzyme and then counted. Aliquots of 1×10^6 cells were washed once with DPBS without Ca^2+ and Mg^2+ and the cell pellets were resuspended in 50 μl of Resuspension Buffer R. A 5 μl aliquot of cell suspension was mixed with 7 μl of Cas9 RNPs. […] The electroporated cells were transferred to 300 μl of […]. […]
# eBFP genomic locus = assay: Sequencing verification of eBFP locus, 1 nt substitution (96 clones); format: cell-based; conditions: sequencing of 96 clones; for Relative percentage HDR / Relative percentage NHEJ / Relative percentage wt: 1 nt substitution
# Procedure: FIG. 8. Effects of oligonucleotide length and modification on HDR. (A) PAM ssDNA (6 nt insertion). […] Various length of PAM ssDNA oligonucleotide was normalized to either equal mass or equal molarity. Samples in the absence of donor (+gRNA) or gRNA (−gRNA) served as controls. The percentages of GFP-positive cells were determined by flow cytometry at 48 hours post transfection. (B) PAM ssDNA (1 nt substitution). […] The percentages of GFP-positive cells were determined by flow cytometry at 48 hours post transfection. (C) Verification by sequencing. The eBFP genomic locus was PCR-amplified, followed by cloning and Sanger sequencing of 96 samples. The relative percentage of wild type (wt), NHEJ, and HDR was plotted. (D) Examples of mutations. Examples of edited clones (not representing the actual percentages of NHEJ and HDR). FIG. 8 discloses SEQ ID NOs: 4-14, respectively, from top to bottom.
# as §1
# It has been reported that relatively short single-stranded oligonucleotides containing 25-61 bases homologous to the target sequence were capable of correcting a single point mutation (Igoucheva, O., Alexeev, V., Yoon, K., Targeted gene correction by small single-stranded oligonucleotides in mammalian cells, Gene Ther. 8(5):391-399 (2001)). […]
# [2] = listed as 80-base modified oligonucleotide
molecule,measurement,setting,value
"PS80: phosphorothioate 80-mer ssDNA, BFP point mutation, SEQ ID 49 (nucleic acid) DNA: {P}-dG*dC*dTdGdCdCdCdGdTdGdCdCdCdTdGdGdCdCdCdAdCdCdCdTdCdGdTdGdAdCdCdAdCdCdCdTdGdAdCdCdTdAdCdGdGdCdGdTdGdCdAdGdTdGdCdTdTdCdAdGdCdCdGdCdTdAdCdCdCdCdGdAdCdCdAdCdAdT*dG*dA",Avg (% GFP+ cells),[1],44.3%
same,Avg (% GFP+ cells),[1]; [2],approximately 45%
same,overall genome modification efficiency,eBFP genomic locus,~94%
same,Relative percentage HDR,eBFP genomic locus,40.4%
same,Relative percentage NHEJ,eBFP genomic locus,53.8%
same,Relative percentage wt,eBFP genomic locus,5.8%
same,Relative percentage HDR,eBFP genomic locus; [2],Approximately 40%
same,Relative percentage NHEJ,eBFP genomic locus; [2],approximately 54%
same,Relative percentage wt,eBFP genomic locus; [2],approximately 6%
